Laboratory results from the supplement of paper PMC12338614.
± gives the uncertainty stated by the source.

B1: library; numbered along this chain (parent)
chain: MEVVDPQQLGMFTEGELMSVGMDTFIHRIDSTEVIYQPRRKRAKLIGKYLMGDLLGEGSYGKVKEVLDSETLCRRAVKILKKKKLRRIPNGEANVKKEIQLLRRLRHKNVIQLVDVLYNEEKQKMYMVMEYCVCGMQEMLDSVPEKRFPVCQAHGYFCQLIDGLEYLHSQGIVHKDIKPGNLLLTTGGTLKISDLGVAEALHPFAADDTCRTSQGSPAFQPPEIANGLDTFSGFKVDIWSAGVTLYNITTGLYPFEGDNIYKLFENIGKGSYAIPGDCGPPLSDLLKGMLEYEPAKRFSIRQIRQHSWFRKKHPPAEAPVPIPPSPDTKDRWRSMTVVPYLEDLHGADEDEDLFDIEDDIIYTQDFTVPGQVPEEEASHNGQRRGLPKAVCMNGTEAAQLSTKSRAEGRAPNPARKACSASSKIRRLSACKQQ

Variants of: B1
Assay: STK11 functional score (HeLa growth suppression), rescaled enrichment; synonymous median = 1, nonsense median = 0 (normalised score)
Conditions: with HeLa; variant type: missense
Method: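 Deep mutational scan (TileSeq/POPCode codon randomisation) of full-length codon-optimised STK11 cDNA integrated at a Bxb1 landing pad (AAVS1) in HeLa cells. Restoring functional STK11 suppresses HeLa proliferation. Variant frequencies were measured by NGS before and after about two weeks of growth. The error-corrected enrichment log-ratio was rescaled so that synonymous median = 1 and nonsense median = 0, scores above 1 were compressed, and codon-level and three biological replicate scores were combined; error is the bootstrapped standard error. Scale: synonymous median = 1, nonsense median = 0; below 0.5 = damaging.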

Row | Variant | STK11 functional score
1 | MEVVDPQQLGMFTEGELMSVGMDTFIHRIDSTEVIYQPRRKRAKLIGKYLMGDLLGEGSYGKVKEVLDSETLCRRAVKILKKKKLRRIPNGEANVKKEIQLLRRLRHKNVIQLVDVLYNEEKQKMYMVMEYCVCGMQEMLDSVPEKLFPVCQAHGYFCQLIDGLEYLHSQGIVHKDIKPGNLLLTTGGTLKISDLGVAEALHPFAADDTCRTSQGSPAFQPPEIANGLDTFSGFKVDIWSAGVTLYNITTGLYPFEGDNIYKLFENIGKGSYAIPGDCGPPLSDLLKGMLEYEPAKRFSIRQIRQHSWFRKKHPPAEAPVPIPPSPDTKDRWRSMTVVPYLEDLHGADEDEDLFDIEDDIIYTQDFTVPGQVPEEEASHNGQRRGLPKAVCMNGTEAAQLSTKSRAEGRAPNPARKACSASSKIRRLSACKQQ [R147L] | 0.461 ± 0.097
2 | MEVVDPQQLGMFTEGELMSVGMDTFIHRIDSTEVIYQPRRKRAKLIGKYLMGDLLGEGSYGKVKEVLDSETLCRRAVKILKKKKLRRIPNGEANVKKEIQLLRRLRHKNVIQLVDVLYNEEKQKMYMVMEYCVCGMQEMLDSVPEKQFPVCQAHGYFCQLIDGLEYLHSQGIVHKDIKPGNLLLTTGGTLKISDLGVAEALHPFAADDTCRTSQGSPAFQPPEIANGLDTFSGFKVDIWSAGVTLYNITTGLYPFEGDNIYKLFENIGKGSYAIPGDCGPPLSDLLKGMLEYEPAKRFSIRQIRQHSWFRKKHPPAEAPVPIPPSPDTKDRWRSMTVVPYLEDLHGADEDEDLFDIEDDIIYTQDFTVPGQVPEEEASHNGQRRGLPKAVCMNGTEAAQLSTKSRAEGRAPNPARKACSASSKIRRLSACKQQ [R147Q] | 0.506 ± 0.12
3 | MEVVDPQQLGMFTEGELMSVGMDTFIHRIDSTEVIYQPRRKRAKLIGKYLMGDLLGEGSYGKVKEVLDSETLCRRAVKILKKKKLRRIPNGEANVKKEIQLLRRLRHKNVIQLVDVLYNEEKQKMYMVMEYCVCGMQEMLDSVPEKFFPVCQAHGYFCQLIDGLEYLHSQGIVHKDIKPGNLLLTTGGTLKISDLGVAEALHPFAADDTCRTSQGSPAFQPPEIANGLDTFSGFKVDIWSAGVTLYNITTGLYPFEGDNIYKLFENIGKGSYAIPGDCGPPLSDLLKGMLEYEPAKRFSIRQIRQHSWFRKKHPPAEAPVPIPPSPDTKDRWRSMTVVPYLEDLHGADEDEDLFDIEDDIIYTQDFTVPGQVPEEEASHNGQRRGLPKAVCMNGTEAAQLSTKSRAEGRAPNPARKACSASSKIRRLSACKQQ [R147F] | 0.668 ± 0.1
4 | MEVVDPQQLGMFTEGELMSVGMDTFIHRIDSTEVIYQPRRKRAKLIGKYLMGDLLGEGSYGKVKEVLDSETLCRRAVKILKKKKLRRIPNGEANVKKEIQLLRRLRHKNVIQLVDVLYNEEKQKMYMVMEYCVCGMQEMLDSVPEKSFPVCQAHGYFCQLIDGLEYLHSQGIVHKDIKPGNLLLTTGGTLKISDLGVAEALHPFAADDTCRTSQGSPAFQPPEIANGLDTFSGFKVDIWSAGVTLYNITTGLYPFEGDNIYKLFENIGKGSYAIPGDCGPPLSDLLKGMLEYEPAKRFSIRQIRQHSWFRKKHPPAEAPVPIPPSPDTKDRWRSMTVVPYLEDLHGADEDEDLFDIEDDIIYTQDFTVPGQVPEEEASHNGQRRGLPKAVCMNGTEAAQLSTKSRAEGRAPNPARKACSASSKIRRLSACKQQ [R147S] | 0.855 ± 0.32
5 | MEVVDPQQLGMFTEGELMSVGMDTFIHRIDSTEVIYQPRRKRAKLIGKYLMGDLLGEGSYGKVKEVLDSETLCRRAVKILKKKKLRRIPNGEANVKKEIQLLRRLRHKNVIQLVDVLYNEEKQKMYMVMEYCVCGMQEMLDSVPEKAFPVCQAHGYFCQLIDGLEYLHSQGIVHKDIKPGNLLLTTGGTLKISDLGVAEALHPFAADDTCRTSQGSPAFQPPEIANGLDTFSGFKVDIWSAGVTLYNITTGLYPFEGDNIYKLFENIGKGSYAIPGDCGPPLSDLLKGMLEYEPAKRFSIRQIRQHSWFRKKHPPAEAPVPIPPSPDTKDRWRSMTVVPYLEDLHGADEDEDLFDIEDDIIYTQDFTVPGQVPEEEASHNGQRRGLPKAVCMNGTEAAQLSTKSRAEGRAPNPARKACSASSKIRRLSACKQQ [R147A] | 0.87 ± 0.19
6 | MEVVDPQQLGMFTEGELMSVGMDTFIHRIDSTEVIYQPRRKRAKLIGKYLMGDLLGEGSYGKVKEVLDSETLCRRAVKILKKKKLRRIPNGEANVKKEIQLLRRLRHKNVIQLVDVLYNEEKQKMYMVMEYCVCGMQEMLDSVPEKMFPVCQAHGYFCQLIDGLEYLHSQGIVHKDIKPGNLLLTTGGTLKISDLGVAEALHPFAADDTCRTSQGSPAFQPPEIANGLDTFSGFKVDIWSAGVTLYNITTGLYPFEGDNIYKLFENIGKGSYAIPGDCGPPLSDLLKGMLEYEPAKRFSIRQIRQHSWFRKKHPPAEAPVPIPPSPDTKDRWRSMTVVPYLEDLHGADEDEDLFDIEDDIIYTQDFTVPGQVPEEEASHNGQRRGLPKAVCMNGTEAAQLSTKSRAEGRAPNPARKACSASSKIRRLSACKQQ [R147M] | 1.06 ± 0.58
7 | MEVVDPQQLGMFTEGELMSVGMDTFIHRIDSTEVIYQPRRKRAKLIGKYLMGDLLGEGSYGKVKEVLDSETLCRRAVKILKKKKLRRIPNGEANVKKEIQLLRRLRHKNVIQLVDVLYNEEKQKMYMVMEYCVCGMQEMLDSVPEKGFPVCQAHGYFCQLIDGLEYLHSQGIVHKDIKPGNLLLTTGGTLKISDLGVAEALHPFAADDTCRTSQGSPAFQPPEIANGLDTFSGFKVDIWSAGVTLYNITTGLYPFEGDNIYKLFENIGKGSYAIPGDCGPPLSDLLKGMLEYEPAKRFSIRQIRQHSWFRKKHPPAEAPVPIPPSPDTKDRWRSMTVVPYLEDLHGADEDEDLFDIEDDIIYTQDFTVPGQVPEEEASHNGQRRGLPKAVCMNGTEAAQLSTKSRAEGRAPNPARKACSASSKIRRLSACKQQ [R147G] | 1.07 ± 0.086
8 | MEVVDPQQLGMFTEGELMSVGMDTFIHRIDSTEVIYQPRRKRAKLIGKYLMGDLLGEGSYGKVKEVLDSETLCRRAVKILKKKKLRRIPNGEANVKKEIQLLRRLRHKNVIQLVDVLYNEEKQKMYMVMEYCVCGMQEMLDSVPEKEFPVCQAHGYFCQLIDGLEYLHSQGIVHKDIKPGNLLLTTGGTLKISDLGVAEALHPFAADDTCRTSQGSPAFQPPEIANGLDTFSGFKVDIWSAGVTLYNITTGLYPFEGDNIYKLFENIGKGSYAIPGDCGPPLSDLLKGMLEYEPAKRFSIRQIRQHSWFRKKHPPAEAPVPIPPSPDTKDRWRSMTVVPYLEDLHGADEDEDLFDIEDDIIYTQDFTVPGQVPEEEASHNGQRRGLPKAVCMNGTEAAQLSTKSRAEGRAPNPARKACSASSKIRRLSACKQQ [R147E] | -0.0954 ± 0.2
9 | MEVVDPQQLGMFTEGELMSVGMDTFIHRIDSTEVIYQPRRKRAKLIGKYLMGDLLGEGSYGKVKEVLDSETLCRRAVKILKKKKLRRIPNGEANVKKEIQLLRRLRHKNVIQLVDVLYNEEKQKMYMVMEYCVCGMQEMLDSVPEKCFPVCQAHGYFCQLIDGLEYLHSQGIVHKDIKPGNLLLTTGGTLKISDLGVAEALHPFAADDTCRTSQGSPAFQPPEIANGLDTFSGFKVDIWSAGVTLYNITTGLYPFEGDNIYKLFENIGKGSYAIPGDCGPPLSDLLKGMLEYEPAKRFSIRQIRQHSWFRKKHPPAEAPVPIPPSPDTKDRWRSMTVVPYLEDLHGADEDEDLFDIEDDIIYTQDFTVPGQVPEEEASHNGQRRGLPKAVCMNGTEAAQLSTKSRAEGRAPNPARKACSASSKIRRLSACKQQ [R147C] | 1.26 ± 0.076
10 | MEVVDPQQLGMFTEGELMSVGMDTFIHRIDSTEVIYQPRRKRAKLIGKYLMGDLLGEGSYGKVKEVLDSETLCRRAVKILKKKKLRRIPNGEANVKKEIQLLRRLRHKNVIQLVDVLYNEEKQKMYMVMEYCVCGMQEMLDSVPEKTFPVCQAHGYFCQLIDGLEYLHSQGIVHKDIKPGNLLLTTGGTLKISDLGVAEALHPFAADDTCRTSQGSPAFQPPEIANGLDTFSGFKVDIWSAGVTLYNITTGLYPFEGDNIYKLFENIGKGSYAIPGDCGPPLSDLLKGMLEYEPAKRFSIRQIRQHSWFRKKHPPAEAPVPIPPSPDTKDRWRSMTVVPYLEDLHGADEDEDLFDIEDDIIYTQDFTVPGQVPEEEASHNGQRRGLPKAVCMNGTEAAQLSTKSRAEGRAPNPARKACSASSKIRRLSACKQQ [R147T] | -0.149 ± 0.087
11 | MEVVDPQQLGMFTEGELMSVGMDTFIHRIDSTEVIYQPRRKRAKLIGKYLMGDLLGEGSYGKVKEVLDSETLCRRAVKILKKKKLRRIPNGEANVKKEIQLLRRLRHKNVIQLVDVLYNEEKQKMYMVMEYCVCGMQEMLDSVPEKDFPVCQAHGYFCQLIDGLEYLHSQGIVHKDIKPGNLLLTTGGTLKISDLGVAEALHPFAADDTCRTSQGSPAFQPPEIANGLDTFSGFKVDIWSAGVTLYNITTGLYPFEGDNIYKLFENIGKGSYAIPGDCGPPLSDLLKGMLEYEPAKRFSIRQIRQHSWFRKKHPPAEAPVPIPPSPDTKDRWRSMTVVPYLEDLHGADEDEDLFDIEDDIIYTQDFTVPGQVPEEEASHNGQRRGLPKAVCMNGTEAAQLSTKSRAEGRAPNPARKACSASSKIRRLSACKQQ [R147D] | -0.33 ± 0.084
12 | MEVVDPQQLGMFTEGELMSVGMDTFIHRIDSTEVIYQPRRKRAKLIGKYLMGDLLGEGSYGKVKEVLDSETLCRRAVKILKKKKLRRIPNGEANVKKEIQLLRRLRHKNVIQLVDVLYNEEKQKMYMVMEYCVCGMQEMLDSVPEKVFPVCQAHGYFCQLIDGLEYLHSQGIVHKDIKPGNLLLTTGGTLKISDLGVAEALHPFAADDTCRTSQGSPAFQPPEIANGLDTFSGFKVDIWSAGVTLYNITTGLYPFEGDNIYKLFENIGKGSYAIPGDCGPPLSDLLKGMLEYEPAKRFSIRQIRQHSWFRKKHPPAEAPVPIPPSPDTKDRWRSMTVVPYLEDLHGADEDEDLFDIEDDIIYTQDFTVPGQVPEEEASHNGQRRGLPKAVCMNGTEAAQLSTKSRAEGRAPNPARKACSASSKIRRLSACKQQ [R147V] | 0.547 ± 0.098
13 | MEVVDPQQLGMFTEGELMSVGMDTFIHRIDSTEVIYQPRRKRAKLIGKYLMGDLLGEGSYGKVKEVLDSETLCRRAVKILKKKKLRRIPNGEANVKKEIQLLRRLRHKNVIQLVDVLYNEEKQKMYMVMEYCVCGMQEMLDSVPEKPFPVCQAHGYFCQLIDGLEYLHSQGIVHKDIKPGNLLLTTGGTLKISDLGVAEALHPFAADDTCRTSQGSPAFQPPEIANGLDTFSGFKVDIWSAGVTLYNITTGLYPFEGDNIYKLFENIGKGSYAIPGDCGPPLSDLLKGMLEYEPAKRFSIRQIRQHSWFRKKHPPAEAPVPIPPSPDTKDRWRSMTVVPYLEDLHGADEDEDLFDIEDDIIYTQDFTVPGQVPEEEASHNGQRRGLPKAVCMNGTEAAQLSTKSRAEGRAPNPARKACSASSKIRRLSACKQQ [R147P] | 0.188 ± 0.08
14 | MEVVDPQQLGMFTEGELMSVGMDTFIHRIDSTEVIYQPRRKRAKLIGKYLMGDLLGEGSYGKVKEVLDSETLCRRAVKILKKKKLRRIPNGEANVKKEIQLLRRLRHKNVIQLVDVLYNEEKQKMYMVMEYCVCGMQEMLDSVPEKIFPVCQAHGYFCQLIDGLEYLHSQGIVHKDIKPGNLLLTTGGTLKISDLGVAEALHPFAADDTCRTSQGSPAFQPPEIANGLDTFSGFKVDIWSAGVTLYNITTGLYPFEGDNIYKLFENIGKGSYAIPGDCGPPLSDLLKGMLEYEPAKRFSIRQIRQHSWFRKKHPPAEAPVPIPPSPDTKDRWRSMTVVPYLEDLHGADEDEDLFDIEDDIIYTQDFTVPGQVPEEEASHNGQRRGLPKAVCMNGTEAAQLSTKSRAEGRAPNPARKACSASSKIRRLSACKQQ [R147I] | 1.22 ± 0.2
